Earlier results in patent US5550213A, “Inhibitors of urokinase plasminogen activator” (Rutgers, The State University of New Jersey, priority 1993, dated 1996).

Molecular target: urokinase (UK) (Homo sapiens, UniProt P00749)
Settings: from Turpeinen et al. (PSTI), Christensen et al. (PAI-2); serpin Ki not functionally comparable to reversible inhibitors; read-out: Ki (nM) against UK, values obtained from the literature

Ki: < 0.01 nM
B1: PAI-2: placental type PA-inhibitor, a serpin, native inhibitor of urokinase (protein, UniProt P05120 1-415, looked up)
Plasminogen activator …: MEDLCVANTLFALNLFKHLAKASPTQNLFLSPWSISSTMAMVYMGSRGSTEDQMAKVLQFNEVGANAVTPMTPENFTSCGFMQQIQKGSYPDAILQAQAADKIHSSFRSLSSAINASTGNYLLESVNKLFGEKSASFREEYIRLCQKYYSSEPQAVDFLECAEEARKKINSWVKTQTKGKIPNLLPEGSVDGDTRMVLVNAVYFKGKWKTPFEKKLNGLYPFRVNSAQRTPVQMMYLREKLNIGYIEDLKAQILELPYAGDVSMFLLLPDEIADVSTGLELLESEITYDKLNKWTSKDKMAEDEVEVYIPQFKLEEHYELRSILRSMGMEDAFNKGRANFSGMSERNDLFLSEVFHQAMVDVNEEGTEAAAGTGGVMTGRTGHGGPQFVADHPFLFLIMHKITNCILFFGRFSSP
